Consider 38 molecules from patent US6759384 (AVENTIS PHARMACEUTICALS, dated 2004).

The chains are these.
B1: Ac-G-G-Y-I-R-G-NH2 (peptide)
peptide: Ac-GGYIRG-NH2
B2: Ac-F(pF)-I-R-L-P-NH2 (peptide)
peptide: Ac-[Phe(4-F)]IRLP-NH2
SMILES: CC[C@H](C)[C@H](NC(=O)[C@H](Cc1ccc(F)cc1)NC(C)=O)C(=O)N[C@@H](CCCNC(=N)N)C(=O)N[C@@H](CC(C)C)C(=O)N1CCC[C@H]1C(N)=O
B3: Ac-Nal(1)-I-R-L-P-NH2 (peptide)
peptide: Ac-[1Nal]IRLP-NH2
B4: Ac-E-Y-I-R-L-P-K-NH2 (peptide)
peptide: Ac-EYIRLPK-NH2
modifications: also: cyclisation unknown (underlining lost)
notes: may be cyclic; underlining lost
B5: Ac-F(pCN)-I-R-L-P-NH2 (peptide)
peptide: Ac-[Phe(4-CN)]IRLP-NH2
SMILES: CC[C@H](C)[C@H](NC(=O)[C@H](Cc1ccc(C#N)cc1)NC(C)=O)C(=O)N[C@@H](CCCNC(=N)N)C(=O)N[C@@H](CC(C)C)C(=O)N1CCC[C@H]1C(N)=O
B6: Ac-F(pNH2)-Chg-R-(Bzl)G-G-OH (peptide)
peptide: Ac-[Phe(4-NH2)][Chg]R[Nphe]G-OH
SMILES: CC(=O)N[C@@H](Cc1ccc(N)cc1)C(=O)N[C@H](C(=O)N[C@@H](CCCNC(=N)N)C(=O)N(CC(=O)NCC(=O)O)Cc1ccccc1)C1CCCCC1
B7: Ac-F(pNH2)-I-R-L-P-NH2 (peptide)
peptide: Ac-[Phe(4-NH2)]IRLP-NH2
SMILES: CC[C@H](C)[C@H](NC(=O)[C@H](Cc1ccc(N)cc1)NC(C)=O)C(=O)N[C@@H](CCCNC(=N)N)C(=O)N[C@@H](CC(C)C)C(=O)N1CCC[C@H]1C(N)=O
B8: Ac-Y(Me)-I-R-L-P-NH2 (peptide)
peptide: XIRLP
modifications: N-term Ac; Y1=Y(Me) O-methyl tyrosine; C-term NH2
B9: Ac-F(pNH2)-Chg-R-(Chx)G-G-OH (peptide)
peptide: Ac-[Phe(4-NH2)][Chg]R[Gly(N-cHex)]G-OH
SMILES: CC(=O)N[C@@H](Cc1ccc(N)cc1)C(=O)N[C@H](C(=O)N[C@@H](CCCNC(=N)N)C(=O)N(CC(=O)NCC(=O)O)C1CCCCC1)C1CCCCC1
B10: Ac-G-Y-Nle-R-L-NH2 (peptide)
peptide: Ac-GY[Nle]RL-NH2
SMILES: CCCC[C@H](NC(=O)[C@H](Cc1ccc(O)cc1)NC(=O)CNC(C)=O)C(=O)N[C@@H](CCCNC(=N)N)C(=O)N[C@@H](CC(C)C)C(N)=O
B11: Ac-F(pNH2)-Chg-R-(CH3CH2CH2(CH3))G-G-OH (peptide)
peptide: Ac-[Phe(4-NH2)][Chg]R[(CH3CH2CH2(CH3))G]G-OH
notes: name runs over rows r100 and r101
B12: Ac-F(pCONH2)-I-R-L-P-NH2 (peptide)
peptide: Ac-[Phe(4-CONH2)]IRLP-NH2
SMILES: CC[C@H](C)[C@H](NC(=O)[C@H](Cc1ccc(C(N)=O)cc1)NC(C)=O)C(=O)N[C@@H](CCCNC(=N)N)C(=O)N[C@@H](CC(C)C)C(=O)N1CCC[C@H]1C(N)=O
B13: Ac-G-y-Nle-R-L-NH2 (peptide)
peptide: Ac-G[dY][Nle]RL-NH2
SMILES: CCCC[C@H](NC(=O)[C@@H](Cc1ccc(O)cc1)NC(=O)CNC(C)=O)C(=O)N[C@@H](CCCNC(=N)N)C(=O)N[C@@H](CC(C)C)C(N)=O
B14: Ac-Y-I-R-L-P-NH2 (peptide)
peptide: Ac-YIRLP-NH2
B15: f(pF)-I-R-L-P-NH2 (peptide)
peptide: [dPhe(4-F)]IRLP-NH2
modifications: N-terminus assumed
SMILES: CC[C@H](C)[C@H](NC(=O)[C@H](N)Cc1ccc(F)cc1)C(=O)N[C@@H](CCCNC(=N)N)C(=O)N[C@@H](CC(C)C)C(=O)N1CCC[C@H]1C(N)=O
B16: Ac-Y-I-R-I-P (peptide)
peptide: Ac-YIRIP
B17: Ac-Y-I-R-{ψ(COCH2)}-G-P-NH2 (peptide)
peptide: Ac-YIRGP-NH2
modifications: also: pseudo peptide bond ψ(COCH2) between R3 and G4
B18: N-morpholinyl-CO-F-I-R-L-P-NH2 (peptide)
peptide: {N‑morpholinyl‑CO}-FIRLP-NH2
B19: Y-I-R-L-A-NH2 (peptide)
peptide: YIRLA-NH2
B20: Ac-f(pF)-I-R-L-P-NH2 (peptide)
peptide: Ac-[dPhe(4-F)]IRLP-NH2
SMILES: CC[C@H](C)[C@H](NC(=O)[C@@H](Cc1ccc(F)cc1)NC(C)=O)C(=O)N[C@@H](CCCNC(=N)N)C(=O)N[C@@H](CC(C)C)C(=O)N1CCC[C@H]1C(N)=O
B21: Y-I-R-I-Y-NH2 (peptide)
peptide: YIRIY-NH2
B22: Ac-y-I-R-L-A (peptide)
peptide: Ac-[dY]IRLA
B23: Ac-Y-N-R-L-P-NH2 (peptide)
peptide: Ac-YNRLP-NH2
B24: y-I-R(COCH2)-G-P-NH2 (peptide)
peptide: [dY]IRGP-NH2
modifications: also: R3-G4 (COCH2) bond replaces peptide bond
B25: Y-I-R-L-a-NH2 (peptide)
peptide: YIRL[dA]-NH2
modifications: N-terminus assumed
SMILES: CC[C@H](C)[C@H](NC(=O)[C@@H](N)Cc1ccc(O)cc1)C(=O)N[C@@H](CCCNC(=N)N)C(=O)N[C@@H](CC(C)C)C(=O)N[C@H](C)C(N)=O
B26: (Me)y-I-R-L-A-NH2 (peptide)
peptide: [dNMeY]IRLA-NH2
modifications: N-terminus assumed
SMILES: CC[C@H](C)[C@H](NC(=O)[C@@H](Cc1ccc(O)cc1)NC)C(=O)N[C@@H](CCCNC(=N)N)C(=O)N[C@@H](CC(C)C)C(=O)N[C@@H](C)C(N)=O
B27: f-I-R-F-P-NH2 (peptide)
peptide: [dF]IRFP-NH2
modifications: N-terminus assumed
SMILES: CC[C@H](C)[C@H](NC(=O)[C@H](N)Cc1ccccc1)C(=O)N[C@@H](CCCNC(=N)N)C(=O)N[C@@H](Cc1ccccc1)C(=O)N1CCC[C@H]1C(N)=O
B28: f-I-R-I-P-NH2 (peptide)
peptide: [dF]IRIP-NH2
modifications: N-terminus assumed
SMILES: CC[C@H](C)[C@H](NC(=O)[C@H](N)Cc1ccccc1)C(=O)N[C@@H](CCCNC(=N)N)C(=O)N[C@H](C(=O)N1CCC[C@H]1C(N)=O)[C@@H](C)CC
B29: y-I-R-L-A-NH2 (peptide)
peptide: [dY]IRLA-NH2
modifications: N-terminus assumed
SMILES: CC[C@H](C)[C@H](NC(=O)[C@H](N)Cc1ccc(O)cc1)C(=O)N[C@@H](CCCNC(=N)N)C(=O)N[C@@H](CC(C)C)C(=O)N[C@@H](C)C(N)=O
B30: Y-I-R-G-A-NH2 (peptide)
peptide: YIRGA-NH2
B31: Ac-Y-I-R-L-A (peptide)
peptide: Ac-YIRLA
notes: printed without -NH2
B32: Ac-Nal(2)-I-R-L-P-NH2 (peptide)
peptide: Ac-[2Nal]IRLP-NH2
B33: Ac-Phe-(pGua)-I-R-L-P-NH2 (peptide)
peptide: Ac-[Phe(4-guanidino)]IRLP-NH2
SMILES: CC[C@H](C)[C@H](NC(=O)[C@H](Cc1ccc(NC(=N)N)cc1)NC(C)=O)C(=O)N[C@@H](CCCNC(=N)N)C(=O)N[C@@H](CC(C)C)C(=O)N1CCC[C@H]1C(N)=O
B34: Ac-S-Y-I-R-L-P-NH2 (peptide)
peptide: Ac-SYIRLP-NH2
B35: G-Y-I-R-L-P-NH2 (peptide)
peptide: GYIRLP-NH2
B36: Ac-W-L-R-L-A-NH2 (peptide)
peptide: Ac-WLRLA-NH2
B37: W-L-R-V-A-NH2 (peptide)
peptide: WLRVA-NH2
B38: w-L-R-V-A-NH2 (peptide)
peptide: [dW]LRVA-NH2
modifications: N-terminus assumed
SMILES: CC(C)C[C@H](NC(=O)[C@H](N)Cc1c[nH]c2ccccc12)C(=O)N[C@@H](CCCNC(=N)N)C(=O)N[C@H](C(=O)N[C@@H](C)C(N)=O)C(C)C

Non-standard residues stand in square brackets, D forms with d. No end group written: not given here. Phe(4-guanidino) = N=C(N)Nc1ccc(C[C@H](N)C(=O)O)cc1; Phe(4-CONH2) = NC(=O)c1ccc(C[C@H](N)C(=O)O)cc1; Phe(4-CN) = N#Cc1ccc(C[C@H](N)C(=O)O)cc1; Phe(4-NH2) = Nc1ccc(C[C@H](N)C(=O)O)cc1; Phe(4-F) = N[C@@H](Cc1ccc(F)cc1)C(=O)O; dPhe(4-F) = N[C@H](Cc1ccc(F)cc1)C(=O)O; 1Nal = N[C@@H](Cc1cccc2ccccc12)C(=O)O; 2Nal = N[C@@H](Cc1ccc2ccccc2c1)C(=O)O; dNMeY = CN[C@H](Cc1ccc(O)cc1)C(=O)O; (CH3CH2CH2(CH3))G = N-alkylglycine; Gly(N-cHex) = O=C(O)CNC1CCCCC1; Chg = N[C@H](C(=O)O)C1CCCCC1; Nle = CCCC[C@H](N)C(=O)O; Nphe = O=C(O)CNCc1ccccc1 Bounds are passed on as bounds.

human factor Xa (Enzyme Research Laboratories, Inc.), sequence (P00742 41-179 limits assumed, chain 1 of 2): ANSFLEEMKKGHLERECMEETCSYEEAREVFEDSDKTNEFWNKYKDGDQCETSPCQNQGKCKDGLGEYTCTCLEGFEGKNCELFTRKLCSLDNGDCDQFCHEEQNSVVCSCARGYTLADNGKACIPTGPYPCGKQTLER
human factor Xa (Enzyme Research Laboratories, Inc.), sequence (P00742 235-488 limits assumed, chain 2 of 2): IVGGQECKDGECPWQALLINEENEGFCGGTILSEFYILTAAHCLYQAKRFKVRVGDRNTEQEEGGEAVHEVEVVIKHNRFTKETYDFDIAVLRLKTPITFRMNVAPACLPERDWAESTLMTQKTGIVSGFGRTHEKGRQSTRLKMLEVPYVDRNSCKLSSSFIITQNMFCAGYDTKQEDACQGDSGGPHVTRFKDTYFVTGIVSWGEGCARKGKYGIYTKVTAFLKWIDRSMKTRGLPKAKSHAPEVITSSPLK

The target of the assay is human factor Xa (Enzyme Research Laboratories, Inc.) (human, UniProt P00742 41-179; P00742 235-488, limits assumed). Nature of the assay: chromogenic FXa inhibition. As to the method:
TBS-P buffer (50 mM Tris-Cl, pH 7.8, 200 mM NaCl, 0.05% (w/v) PEG-8000, 0.02% (w/v) NaN_3) was used for this assay. The IC$50$ was determined by combining in appropriate wells of a Costar half-area microtiter plate 25 μl human factor Xa (Enzyme Research Laboratories, Inc.; South Bend Ind.) in TBS-P; 40 μl 10% (v/v) DMSO in TBS-P (uninhibited control) or various concentrations of a peptide to be tested diluted in 10% (v/v) DMSO in TBS-P; and substrate S-2765 (Nα-benzyloxycarbonyl-D-Arg-Gly-L-Arg-p-nitroanilide; Kabi Pharmacia, Inc.; Franklin Ohio) in TBS-P.
The assays were performed by pre-incubating the peptide inhibitor plus enzyme for 10 min, then the assay was initiated by adding substrate to obtain a final volume of 100 μl. The initial velocity of chromogenic substrate hydrolysis was measured by the change in absorbance at 405 nm using a Bio-tek Instruments kinetic plate reader (Ceres UV900HDi) at 25° C. during the linear portion of the time course (usually 1–5 min after addition of substrate). The concentration of inhibitor that caused a 50% decrease in the rate of substrate hydrolysis was predicted by linear regression after plotting the relative rates of hydrolysis (compared to the uninhibited control) versus the log of the peptide concentration. The enzyme concentration was 0.5 nM and substrate concentration was 140 μM.
The Ki is the equilibrium dissociation constant of an inhibitor or competing ligand from its target. A lower Ki goes with a stronger hold on the target. Consider B1, for which the Ki was less than 100 µM.

As to B2, the Ki is less than 100 µM.

B3: the Ki was less than 100 µM.

As to B4, the inhibition constant (Ki) was less than 100 µM.

B5 showed an inhibition constant Ki of less than 100 µM.

As to B6, the inhibition constant Ki is less than 100 µM.

B7 had a Ki of less than 100 µM.

Molecule B8 showed a Ki of less than 100 µM.

Turning to B9, the inhibition constant Ki is less than 100 µM.

In the case of B10, the Ki was less than 100 µM.

In the case of B11, the inhibition constant (Ki) is less than 100 µM.

Molecule B12 returned an inhibition constant (Ki) of less than 100 µM.

B13 yielded a Ki of less than 100 µM.

Turning to B14, the inhibition constant (Ki) was less than 100 µM.

B15: the Ki is less than 100 µM.

Molecule B16 had an inhibition constant (Ki) of less than 100 µM.

B17 came in with a Ki of less than 100 µM.

Consider B18, for which the Ki is less than 100 µM.

On to B19, for which the Ki was less than 100 µM.

Molecule B20 showed an inhibition constant Ki of less than 100 µM.

B21 showed an inhibitory constant (Ki) of less than 100 µM.

B22 came in with an inhibitory constant (Ki) of less than 100 µM.

B23 yielded a Ki of less than 100 µM.

Regarding B24, the Ki was less than 100 µM.

B25 displayed an inhibitory constant (Ki) of less than 100 µM.

Consider B26, for which the Ki was less than 100 µM.

Take B27: the Ki was less than 100 µM.

As to B28, the inhibition constant (Ki) is less than 100 µM.

For B29, the inhibition constant Ki is less than 100 µM.

For the molecule B30, the Ki is less than 100 µM.

For B31, the Ki was less than 100 µM.

In turn, B32 returned an inhibition constant Ki of less than 100 µM.

As for B33, the inhibitory constant (Ki) is less than 100 µM.

B34 had a Ki of less than 100 µM.

For B35, the inhibitory constant (Ki) is less than 100 µM.

Take B36: the Ki was less than 100 µM.

Take B37: the Ki was less than 100 µM.

In turn, B38 showed an inhibition constant (Ki) of less than 100 µM.
